This experiment addresses T1, myosin S2Δ, the first 126 amino acids of myosin S2 (cardiac myosin).
T1 construct: cardiac myosin heavy chain, S2 domain, first 126 amino acids of S2
Put plainly: MST; C1mC2 species (or native full-length cMyBP-C) titrated against myosin S2Δ; normalized MST curves; conditions in SI Appendix. The settings on record: both partners purified.

B1: C1mC2-S288A monophosphorylated by PKA (C1mC2-S288A-1P) (domain or fragment)
chain: PIGLFLMRPQDGEVTVGGSIVFSARVAGASLLKPPVVKWFKGKWVDLSSKVGQHLQLHDSYDRASKVYLFELHITDAQATSAGGYRCEVSTKDKFDSCNFNLTVHEAIGSGDLDLRSAFRRTSLAGTGRRTADSHEDAGTLDFSSLLKKSSSFRRDSKLEAPAEEDVWEILRQAPPSEYERIAFQHGVTDLRGMLKRLKGMKHDEKKSTAFQKKLEPAYQVNKGHKIRLTVELADPDAEVKWLKNGQEIQMSGRYIFESIGAKRTLTISQCSLADDAAYQCVVGGEKCSTELFVKEP
modifications: one phosphate (monophosphorylated by PKA); the phosphorylated residue is not given
For orientation: Kd means the free concentration of one partner at which half of the binding sites on the other are occupied at equilibrium, for simple one-to-one binding. B1 displayed a Kd of about 20 µM.

The values above are taken from paper PMC6681757, “Site-specific phosphorylation of myosin binding protein-C coordinates thin and thick filament activation in cardiac muscle” (Proceedings of the National Academy of Sciences of the …, 2019).
